Experimental data taken from the DeepSol protein solubility set.

Test: soluble on expression in E. coli; label from the status in PepcDB or PDB records

Row | Sequence | soluble on expression in E. coli
1 | MEKKVEAILEFDKIKKQLAEFASSSLGEQAIYELAPATDFQVVQKAQLETEEGAKIIRLRGSAPITGLTDVFAHLKRLEIGGDLNGLEIYQIGSNLRVSRQMKNFMNDLLEIGVEIPLLGALSDELLVLKDVEEDIAISIDESGKILDTASEALSSIRRTLRRTEDRVREKLESYLRDRNASKMLSDAVITIRNDRYVIPVKQEYKGHYGGIVHDQSASGQTLFIEPQSVVDLNNERKALQAKEKQEIERILAEISASLAGWINEIHHNTFILGRFDFILAKARFGKALKAVTPHLSDTGIVHLIAARHPLLDAEKVVANDIYLGEDFSTIVITGPNTGGKTITLKTLGLLTLMAQSGLQIPAQEDSTIAVFENVFADIGDEQSIEQSLSTFSSHMTNIVSILEKVNHKSLILYDELGAGTDPQEGAALAIAILDASHKKGASVVATTHYPELKAYGYNRAHATNASVEFNVETLSPTYKLLIGVPGRSNAFDISRRLGLSESIITEARSLVDTESADLNDMISSLEEKRNLAEREYEEARELARGADALLKDLQKEITNYYQQKDKLLEQANEKAAGIVEKAETEAEEIIHELRTMQLNGAAGIKEHELIDAKTRLGKAKPKTINKAIPKAPKQKPHVFQAGDNVRVLSLGQKGTLLNKISDKEWNVQIGIIKMKIKTTDLEYIEPEKPKKQRIITSVHSSDSPAKSELDLRGERYEDAIQKVDKYLDEALLAGYPQVAIIHGKGTGALRTGVTEYLKNHRMVKSIRFGAAAEGGNGVTIVEFKLEHHHHHH | not soluble
2 | MEKMIITAAICGAEVLKEHNPAVPYTVEECVREAKSAYDAGASIIHLHVRYDDGTPTQDRNRFKEVMEAIKAVCPDVIIQPSTGGAVGMTNDERLQPTELFPEMATLDCGTLNFGGDEVFTNTENTIKYFGEKMIERGIKPELEVFDKSMIDMALRLHRKGYIQSPMHFDFVMGVNGGISGEMRDFVFLRESIPADATYTVAGVGRYEFPLAALAIIDGGHVRVGFEDNVYISKGVLARSNGELVEKVVRMAKEMGREIATPAEARRILGLSK | soluble
3 | MEKNWYVVHTYSGYENKVKANLEKRVESMGMQDKIFRVVVPEEEETDIKNGKKKVVKKKVFPGYVLVEIVMTDDSWYVVRNTPGVTGFVGSAGSGSKPTPLLPGEAETILKRMGMDERKTDIDFELKETVKVIDGPFANFTGSIEEIDYDKSKVKVFVNMFGRETPVELEFTQIDKL | soluble
4 | MEKPDINVAEAWEQYWNKTLVNATPVLWDANVERAVVVDLPRFQSFFDTELPLIDFACGNGTQTKFLSQFFPRVIGFDVSKTALEMASKENTAANISYRLLDGLVPEQAAQIHSEIGDANIYMRTGFHHIPVEKRELLAQSLRTLLGKQGVMYLIELGTGCIEFFNSLLEKYGKLPYELSLVMEHGIRPGIFTTEDIELYFPDFEILSQGESLFQSIHKLPDGNYATPPAFWAVIKRHLEHHHHHH | soluble
5 | MEKSYMKHELWGDGDFQEDDVWDVLDGYQSPFMISSNHTTKPSFSTQTLLPSEPRMIPERQRTEGMAPMRQQSVPVNVPDWSMVQRKKTKKVVDDENVSPEEYFLRRSRSSSSSSVMEGVGRKLKGRDLSKVRNAILKQTGFLE | soluble
6 | MELAYVDAKKEEFDTLDKNHDGKVSLAEYEEHFHEASSKNEKSRTAYFAKVFEDFDEDFNMALSREELERVLAERFLVKPRENFPKLFFKFDVDKSGGLDLTEYMKFDAEFPFDQTDPVGGGPSKSNNHHDQMHTEVPQDADAAAIAAVLAQASPTLNKSPVGVAPPQTSPGLHPVAPGLFQTAVPIKKV | soluble
7 | MELDDFDPEDKEILSWDINDVKLPQNVKTTDWFQEWPDSYVKHIYSSDDRNAQRHLSSWAMRNTNNHNSRILKKSCLGVVVCSRDCSTEEGRKIYLRPAICDKARQKQQRKSCPNCNGPLKLIPCRGHGGFPVTNFWRHDGRFIFFQSKGEHDHPRPETKLEAEARRAMKKVHM | soluble
8 | MELDVKFEEKDLQHIRQVFSRLRGLGKSDGLTRKMASVLQEDAEDAFAMERTPDGVKWRDLSPKYKKQRYNKGYTGNILQRHGDLAGSLNIAYGDNFAAVGVAEHYGEYHQLGTKKMSARPFLGISEDGVEEIKEILNNAIRRALRD | not soluble
9 | MELKSTRHTKYLCNYHFVWIPKHRRNTLVNEIAEYTKEVLKSIAEELGCEIIALEVMPDHIHLFVNCPPRYAPSYLANYFKGKSARLILKKFPQLNKGKLWTRSYFVATAGNVSSEVIKKYIEEQWRKEGEEE | soluble
10 | MELPLDKIKLPPGFSISVWANVPDARTMTLGDKGTVFVGSKSAGNVYAITENAGKRQIRIIASKLKMPNGVAFHDGALYVSSVNRILRFDNIENTLDQPLPPRIITADYPKETYHGWRFIAFGPDGWLYVPVGSSCNVCETDLEHYALISRIRPDGSNYEVFAKGVRNTEGFDWHPVTKALWFTDISREWMGDNLPPDELNHASNQGLDFGFPYCHGKEVSDPKLGAKRDCNKFIPPAVELDPHVAPMGMRFYTGTMFPAEYHNGIFIAEHGSWNRSTKIGYRLEWVQLEVNEVARKEIFAEGWLQENEAWGRPVDVLVMPDGALLVSDDMAGVVYRISYDQPLEHHHHHH | soluble
11 | MELPPKVKNILLLDSEGKRVAVKYYSDDWPTNSAQEAFEKSVFTKTQKTNARTEVEVTALENNIVVYKFVQDLHFFVTGGEEENELILASVLEGLFDAVTLLLRSNVDKREALDNLDLIFLSFDEIIDGGIVLETDANVIAGKAGINSTDPNAPLSEQTISQALATAREHLTRSLMK | soluble
12 | MELTAFRHQVGGHFGILLCNGHVAKPSNLREMAFYKVMNSELKHFSPAFCKEVDVRATVNPSTGQIVVETLEKLDCHKKKSSSKHERSSTGFRQTTDGRVTVDTEKQWNPWAAGCQCKVVERMLKELEPTPFLLLENVVAHYTRPCVLDLKIGTRQHGDDASESKRHRQLMKCRHSTSATLGVRVVGMQLYEAETKSYSYVEKQEGRRIDAAGFRGYVKRFIKCCGRSRAARIRQKLSKLRSLLAEFEGYRFFSASILIAFDAEAADSSSDDAVKVCIIDFAHSTFSGFFEDLAYSGADEGCLLGLDSIVEAMEPIVSKDPVTPSSSFEKKK | not soluble
13 | MELWRQCTHWLIQCRVLPPSHRVTWEGAQVCELAQALRDGVLLCQLLNNLLPQAINLREVNLRPQMSQFLCLKNIRTFLSTCCEKFGLKRSELFEAFDLFDVQDFGKVIYTLSALSWTPIAQNKGIMPFPTEDSALNDEDIYSGLSDQIDDTAEEDEDLYDCVENEEAEGDEIYEDLMRLESVPTPPKMTEYDKRCCCLREIQQTEEKYTDTLGSIQQHFMKPLQRFLKPQDMETIFVNIEELFSVHTHFLKELKDALAGPGATTLYQVFIKYKERFLVYGRYCSQVESASKHLDQVATAREDVQMKLEECSQRANNGRFTLRDLLMVPMQRVLKYHLLLQELVKHTQDATEKENLRLALDAMRDLAQCVNEVKRDNETLRQITNFQLSIENLDQSLANYGRPKIDGELKITSVERRSKTDRYAFLLDKALLICKRRGDSYDLKASVNLHSFQVRDDSSGERDNKKWSHMFLLIEDQGAQGYELFFKTRELKKKWMEQFEMAISNIYPENATANGHDFQMFSFEETTSCKACQMLLRGTFYQGYRCYRCRAPAHKECLGRVPPCGRHGQDFAGTMKKDKLHRRAQDKKRNELGLPKMEVFQEYYGIPPPPGAFGPFLRLNPGDIVELTKAEAEHNWWEGRNTATNEVGWFPCNRVHPYVHGPPQDLSVHLWYAGPMERAGAEGILTNRSDGTYLVRQRVKDTAEFAISIKYNVEVKHIKIMTSEGLYRITEKKAFRGLLELVEFYQQNSLKDCFKSLDTTLQFPYKEPERRAISKPPAGSTKYFGTAKARYDFCARDRSELSLKEGDIIKILNKKGQQGWWRGEIYGRIGWFPSNYVEEDYSEYC | soluble
14 | MELYLIRHGIAEAQKTGIKDEERELTQEGKQKTEKVAYRLVKLGRQFDLIVTSPLIRARQTAEILLASGLSCQLEESNHLAPNGNIFNWLDYWLKPKNFPENAQIAIVGHEPCLSNWTEILLWGEAKDSLVLKKAGMIGLKLPEIGSPVGRSQMFWLTPPRYLLLEHHHHHH | soluble
